Test results reported in US20220048967A1 (published 2022).
Numbered stars: 1 amine (or outer) side, 2 acyl side, 3 side chain; on linkers, the order of the positions; unused ones are H or OH. Square brackets hold non-standard residues; d marks the D form. Side chains are listed from the residue outwards. Ends that are not written are not given here. * marks the point of attachment. C20 diacid = O=C(O)CCCCCCCCCCCCCCCCCCC(=O)*; γGlu = O=C(O)[C@H](CCC(=O)[*:2])N[*:1]; AEEA = NCCOCCOCC(=O)O; Aib = CC(C)(N)C(=O)O

T1: human GIP receptor (human, UniProt P48546 22-466)
T1 sequence (looked up): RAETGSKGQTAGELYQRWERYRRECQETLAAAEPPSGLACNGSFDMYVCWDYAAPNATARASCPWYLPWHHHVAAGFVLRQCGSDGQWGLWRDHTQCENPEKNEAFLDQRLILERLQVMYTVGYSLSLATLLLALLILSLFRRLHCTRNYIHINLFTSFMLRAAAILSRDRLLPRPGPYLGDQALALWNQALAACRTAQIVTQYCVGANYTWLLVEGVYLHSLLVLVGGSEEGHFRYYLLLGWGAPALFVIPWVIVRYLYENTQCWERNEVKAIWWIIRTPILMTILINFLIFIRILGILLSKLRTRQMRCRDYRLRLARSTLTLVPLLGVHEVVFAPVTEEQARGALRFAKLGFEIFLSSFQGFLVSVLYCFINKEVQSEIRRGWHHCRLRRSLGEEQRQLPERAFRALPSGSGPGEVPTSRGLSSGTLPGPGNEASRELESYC


Tests used:
[1] = biological target: human GLP-1 receptor (human, UniProt P43220 24-463); test: cell-based or functional assay
[2] = biological target: T1, human GIP receptor; test: cell-based or functional assay

Row | Binder | hGLP1R cAMP EC50 ratio [1] | hGLP1R cAMP Rel EC50 [1] [nM] | hGIPR cAMP EC50 ratio [2] | hGIPR cAMP Rel EC50 [2] [nM]
1 | YXEGTXTSDXSIXLDXKAQXEFIXXLIEGGPSSGAPPPS (Aib2; αMeF(2F)6; 4Pal10; αMeL13; Orn16; K17((2-[2-(2-Amino-ethoxy)-ethoxy]-acetyl)2-(γ-Glu)-CO-(CH2)16-CO2H); Aib20; D-Glu24; αMeY25; C-terminal NH2) [Example 4] | 1.41 | 0.0297 | 5.95 | 0.0272
2 | Y[Aib]EGTFTSDYSILLDKIAQ[Aib]AFIEYLIK([AEEA-AEEA-γGlu-C20 diacid])GG-NH2 (N-terminus assumed; SMILES CC[C@H](C)[C@H](NC(=O)[C@H](CCCCN)NC(=O)[C@H](CC(=O)O)NC(=O)[C@H](CC(C)C)NC(=O)[C@H](CC(C)C)NC(=O)[C@@H](NC(=O)[C@H](CO)NC(=O)[C@H](Cc1ccc(O)cc1)NC(=O)[C@H](CC(=O)O)NC(=O)[C@H](CO)NC(=O)[C@@H](NC(=O)[C@H](Cc1ccccc1)NC(=O)[C@@H](NC(=O)CNC(=O)[C@H](CCC(=O)O)NC(=O)C(C)(C)NC(=O)[C@@H](N)Cc1ccc(O)cc1)[C@@H](C)O)[C@@H](C)O)[C@@H](C)CC)C(=O)N[C@@H](C)C(=O)N[C@@H](CCC(N)=O)C(=O)NC(C)(C)C(=O)N[C@@H](C)C(=O)N[C@@H](Cc1ccccc1)C(=O)N[C@H](C(=O)N[C@@H](CCC(=O)O)C(=O)N[C@@H](Cc1ccc(O)cc1)C(=O)N[C@@H](CC(C)C)C(=O)N[C@H](C(=O)N[C@@H](CCCCNC(=O)COCCOCCNC(=O)COCCOCCNC(=O)CC[C@H](NC(=O)CCCCCCCCCCCCCCCCCCC(=O)O)C(=O)O)C(=O)NCC(=O)NCC(N)=O)[C@@H](C)CC)[C@@H](C)CC) [Example 73] | 0.0225 | 2.55 | 0.174 | 0.979
3 | YXEGTFTSDYSIXLDKKAQXAXIEYLIEGGPSSGAPPPS (not fully specified; Aib2; αMeF13 as printed (likely αMeL13); K17((2-[2-(2-Amino-ethoxy)-ethoxy]-acetyl)2-(γ-Glu)-CO-(CH2)18-CO2H); Aib20; αMeF22; C-terminal NH2) [Example 74] | 0.115 | 0.467 | 1.7 | 0.0866
4 | XXEGTFTSDYSILLDKKAQXAFIEYLIEGGPSSGAPPPS (D-Tyr1; Aib2; K17((2-[2-(2-Amino-ethoxy)-ethoxy]-acetyl)2-(γ-Glu)-CO-(CH2)18-CO2H); Aib20; C-terminal NH2) [Example 78] | 0.143 | 0.544 | 0.293 | 0.532
5 | XAEGTFTSDYSILLDKKAQXAFIEYLIEGGPSSGAPPPS (N-terminal Ac; D-Tyr1; K17((2-[2-(2-Amino-ethoxy)-ethoxy]-acetyl)2-(γ-Glu)-CO-(CH2)18-CO2H); Aib20; C-terminal NH2) [Example 79] | 0.041 | 2.02 | 2.11 | 0.0732
6 | YXEGTFTSDYSIXLDKKAQXAFIEYXIEGGPSSGAPPPS (not fully specified; Aib2; αMeF13 as printed (likely αMeL13); K17((2-[2-(2-Amino-ethoxy)-ethoxy]-acetyl)2-(γ-Glu)-CO-(CH2)18-CO2H); Aib20; αMeF26 as printed (likely αMeL26); C-terminal NH2) [Example 75] | 0.0359 | 1.49 | 0.69 | 0.214
7 | YXEGTFTSDYSILLDKKAQXAFIEYLIXGGPSSGAPPPS (Aib2; K17((2-[2-(2-Amino-ethoxy)-ethoxy]-acetyl)2-(γ-Glu)-CO-(CH2)18-CO2H); Aib20; D-Glu28; C-terminal NH2) [Example 83] | 0.166 | 0.387 | 0.804 | 0.182
8 | YXEGTFTSDYSXLLDKKAQXAFIEYLIEGGPSSGAPPPS (Aib2; D-Ile12; K17((2-[2-(2-Amino-ethoxy)-ethoxy]-acetyl)2-(γ-Glu)-CO-(CH2)18-CO2H); Aib20; C-terminal NH2) [Example 82] | 0.00325 | 26.1 | 0.00679 | 24.3
9 | YXEGTXTSDYSIXLDKKAQXAXIEYLIEGGPSSGAPPPS (not fully specified; Aib2; αMeF6; αMeF13 as printed (likely αMeL13); K17((2-[2-(2-Amino-ethoxy)-ethoxy]-acetyl)2-(γ-Glu)-CO-(CH2)18-CO2H); Aib20; αMeF22; C-terminal NH2) [Example 76] | 0.63 | 0.125 | 1.24 | 0.124
10 | YXEGTFTSDYSILLDKKAQXAFIXYLIEGGPSSGAPPPS (Aib2; K17((2-[2-(2-Amino-ethoxy)-ethoxy]-acetyl)2-(γ-Glu)-CO-(CH2)18-CO2H); Aib20; D-Glu24; C-terminal NH2) [Example 84] | 0.173 | 0.374 | 1.59 | 0.0915
11 | YXEGTFTSDYXILLDKKAQXAFIEYLIEGGPSSGAPPPS (Aib2; D-Ser11; K17((2-[2-(2-Amino-ethoxy)-ethoxy]-acetyl)2-(γ-Glu)-CO-(CH2)18-CO2H); Aib20; C-terminal NH2) [Example 81] | 0.063 | 1.29 | 0.373 | 0.428
12 | Y[Aib]EGTFTSDASILLDKK([AEEA-AEEA-γGlu-C20 diacid])AQ[Aib]AFIEYLIEGGPSSGAPPPS-NH2 (N-terminus assumed; SMILES CC[C@H](C)[C@H](NC(=O)[C@H](CC(C)C)NC(=O)[C@H](Cc1ccc(O)cc1)NC(=O)[C@H](CCC(=O)O)NC(=O)[C@@H](NC(=O)[C@H](Cc1ccccc1)NC(=O)[C@H](C)NC(=O)C(C)(C)NC(=O)[C@H](CCC(N)=O)NC(=O)[C@H](C)NC(=O)[C@H](CCCCNC(=O)COCCOCCNC(=O)COCCOCCNC(=O)CC[C@H](NC(=O)CCCCCCCCCCCCCCCCCCC(=O)O)C(=O)O)NC(=O)[C@H](CCCCN)NC(=O)[C@H](CC(=O)O)NC(=O)[C@H](CC(C)C)NC(=O)[C@H](CC(C)C)NC(=O)[C@@H](NC(=O)[C@H](CO)NC(=O)[C@H](C)NC(=O)[C@H](CC(=O)O)NC(=O)[C@H](CO)NC(=O)[C@@H](NC(=O)[C@H](Cc1ccccc1)NC(=O)[C@@H](NC(=O)CNC(=O)[C@H](CCC(=O)O)NC(=O)C(C)(C)NC(=O)[C@@H](N)Cc1ccc(O)cc1)[C@@H](C)O)[C@@H](C)O)[C@@H](C)CC)[C@@H](C)CC)C(=O)N[C@@H](CCC(=O)O)C(=O)NCC(=O)NCC(=O)N1CCC[C@H]1C(=O)N[C@@H](CO)C(=O)N[C@@H](CO)C(=O)NCC(=O)N[C@@H](C)C(=O)N1CCC[C@H]1C(=O)N1CCC[C@H]1C(=O)N1CCC[C@H]1C(=O)N[C@@H](CO)C(N)=O) [Example 85] | 1.13 | 0.0518 | 0.111 | 1.67
13 | Y[Aib]EGTFTSDYSILLKIAQ[Aib]AFIEYLIEGGPSSGAPPK([AEEA-AEEA-γGlu-C20 diacid])S-NH2 (N-terminus assumed; SMILES CC[C@H](C)[C@H](NC(=O)[C@H](CCCCN)NC(=O)[C@H](CC(C)C)NC(=O)[C@H](CC(C)C)NC(=O)[C@@H](NC(=O)[C@H](CO)NC(=O)[C@H](Cc1ccc(O)cc1)NC(=O)[C@H](CC(=O)O)NC(=O)[C@H](CO)NC(=O)[C@@H](NC(=O)[C@H](Cc1ccccc1)NC(=O)[C@@H](NC(=O)CNC(=O)[C@H](CCC(=O)O)NC(=O)C(C)(C)NC(=O)[C@@H](N)Cc1ccc(O)cc1)[C@@H](C)O)[C@@H](C)O)[C@@H](C)CC)C(=O)N[C@@H](C)C(=O)N[C@@H](CCC(N)=O)C(=O)NC(C)(C)C(=O)N[C@@H](C)C(=O)N[C@@H](Cc1ccccc1)C(=O)N[C@H](C(=O)N[C@@H](CCC(=O)O)C(=O)N[C@@H](Cc1ccc(O)cc1)C(=O)N[C@@H](CC(C)C)C(=O)N[C@H](C(=O)N[C@@H](CCC(=O)O)C(=O)NCC(=O)NCC(=O)N1CCC[C@H]1C(=O)N[C@@H](CO)C(=O)N[C@@H](CO)C(=O)NCC(=O)N[C@@H](C)C(=O)N1CCC[C@H]1C(=O)N1CCC[C@H]1C(=O)N[C@@H](CCCCNC(=O)COCCOCCNC(=O)COCCOCCNC(=O)CC[C@H](NC(=O)CCCCCCCCCCCCCCCCCCC(=O)O)C(=O)O)C(=O)N[C@@H](CO)C(N)=O)[C@@H](C)CC)[C@@H](C)CC) [Example 77] | < 3.25e-05 | > 2000 | 0.00102 | 135
14 | Y[Aib]EGTFTSDYSILLDKK([AEEA-AEEA-γGlu-C20 diacid])AQ[Aib]AFIEYLIEAGPSSGAPPPS-NH2 (N-terminus assumed; SMILES CC[C@H](C)[C@H](NC(=O)[C@H](CC(C)C)NC(=O)[C@H](Cc1ccc(O)cc1)NC(=O)[C@H](CCC(=O)O)NC(=O)[C@@H](NC(=O)[C@H](Cc1ccccc1)NC(=O)[C@H](C)NC(=O)C(C)(C)NC(=O)[C@H](CCC(N)=O)NC(=O)[C@H](C)NC(=O)[C@H](CCCCNC(=O)COCCOCCNC(=O)COCCOCCNC(=O)CC[C@H](NC(=O)CCCCCCCCCCCCCCCCCCC(=O)O)C(=O)O)NC(=O)[C@H](CCCCN)NC(=O)[C@H](CC(=O)O)NC(=O)[C@H](CC(C)C)NC(=O)[C@H](CC(C)C)NC(=O)[C@@H](NC(=O)[C@H](CO)NC(=O)[C@H](Cc1ccc(O)cc1)NC(=O)[C@H](CC(=O)O)NC(=O)[C@H](CO)NC(=O)[C@@H](NC(=O)[C@H](Cc1ccccc1)NC(=O)[C@@H](NC(=O)CNC(=O)[C@H](CCC(=O)O)NC(=O)C(C)(C)NC(=O)[C@@H](N)Cc1ccc(O)cc1)[C@@H](C)O)[C@@H](C)O)[C@@H](C)CC)[C@@H](C)CC)C(=O)N[C@@H](CCC(=O)O)C(=O)N[C@@H](C)C(=O)NCC(=O)N1CCC[C@H]1C(=O)N[C@@H](CO)C(=O)N[C@@H](CO)C(=O)NCC(=O)N[C@@H](C)C(=O)N1CCC[C@H]1C(=O)N1CCC[C@H]1C(=O)N1CCC[C@H]1C(=O)N[C@@H](CO)C(N)=O) [Example 86] | 0.243 | 0.271 | 3.29 | 0.0452
